Assay results: paper PMC5587734

Tests used:
MBD2 MBD+IDR (chicken) = MBD2 MBD+IDR (chicken) (chicken, UniProt Q5EFL0 1-117); assay: NMR
MBD2 MBD (chicken) = MBD2 MBD (chicken) (chicken, UniProt Q5EFL0 1-71); assay: NMR

B1: INV mCpG DNA (dsDNA)
DNA 1: GGACCGACTC
DNA 2: GAGTCGGTCC
modifications: 5mC at position 5 of strand 1; complement methylation implied
binding result (MBD2 MBD+IDR (chicken)): binds | binding result (MBD2 MBD (chicken)): binds
